Changes are numbered by the printed parent chain. Square brackets hold non-standard residues; d marks the D form. pT = C[C@@H](OP(=O)(O)O)[C@H](N)C(=O)O
How the values were obtained:
AR T850A = molecular target: T1, AR T850A (Homo sapiens, UniProt P10275, T851A); assay: Whole-cell competition ligand binding assay in COS-7 cells; conditions: mean ± SE
T1 construct: Cells expressing a flag-tagged AR full-length were used as control; expressed in transfected cells
T1 sequence (P10275 1-920 T851A): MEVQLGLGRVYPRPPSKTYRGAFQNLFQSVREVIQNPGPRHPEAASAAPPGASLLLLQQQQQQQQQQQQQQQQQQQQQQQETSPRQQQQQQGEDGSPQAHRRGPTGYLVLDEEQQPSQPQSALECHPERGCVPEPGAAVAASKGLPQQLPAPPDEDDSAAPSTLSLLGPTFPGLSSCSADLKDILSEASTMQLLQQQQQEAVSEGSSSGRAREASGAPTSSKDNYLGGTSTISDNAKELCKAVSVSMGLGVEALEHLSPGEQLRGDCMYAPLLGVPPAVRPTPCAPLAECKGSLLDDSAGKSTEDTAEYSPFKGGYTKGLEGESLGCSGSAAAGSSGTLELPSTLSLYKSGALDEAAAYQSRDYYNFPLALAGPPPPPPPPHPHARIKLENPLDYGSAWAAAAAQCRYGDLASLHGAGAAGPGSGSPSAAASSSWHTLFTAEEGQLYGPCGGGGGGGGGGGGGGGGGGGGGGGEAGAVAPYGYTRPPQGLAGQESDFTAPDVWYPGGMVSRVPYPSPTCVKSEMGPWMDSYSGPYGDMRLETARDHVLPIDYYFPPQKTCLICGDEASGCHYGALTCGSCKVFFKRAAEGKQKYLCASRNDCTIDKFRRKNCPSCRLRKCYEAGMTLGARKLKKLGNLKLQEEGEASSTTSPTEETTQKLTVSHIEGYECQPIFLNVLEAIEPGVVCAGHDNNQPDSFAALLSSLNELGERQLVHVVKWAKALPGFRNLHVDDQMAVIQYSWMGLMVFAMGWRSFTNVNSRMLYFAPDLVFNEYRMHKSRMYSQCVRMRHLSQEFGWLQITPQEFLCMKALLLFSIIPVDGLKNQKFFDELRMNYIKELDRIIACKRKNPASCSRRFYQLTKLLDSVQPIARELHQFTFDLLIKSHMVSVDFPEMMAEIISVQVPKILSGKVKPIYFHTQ
Method: (§1) After addition of Ultima Gold XR (Perkin Elmer, Waltham, MA, USA), cell lysates were counted for ^3H-signal. Data were normalized for the average cpm of all data points per independent experiment. Mean and SEM of the specific binding (total binding—non-specific binding) is given (n ≥ 3). Via non-linear regression analysis using the One-site binding-equation of GraphPad Prism 9 (version 9.3.1), the KD and Bmax were calculated. Ratio-paired T-test with * = p ≤ 0.05, ** = p < 0.01.

AR T850D = molecular target: T2, AR T850D (Homo sapiens, UniProt P10275, T851D); assay: as above
T2 construct: Cells expressing a flag-tagged AR full-length were used as control; expressed in transfected cells
T2 sequence (P10275 1-920 T851D): T1 sequence (P10275 1-920 T851A) with A851D
Method: as §1

AR WT = molecular target: T3, AR WT (Homo sapiens, UniProt P10275); assay: as above; conditions: mean ± SE
T3 construct: Cells expressing a flag-tagged AR full-length were used as control; expressed in transfected cells
T3 sequence (P10275 1-920): T1 sequence (P10275 1-920 T851A) with A851T
Method: as §1

[1] = Circular dichroism spectroscopy and thermal denaturation of H10 peptides; assay type: physicochemical; conditions: for melting temperature higher than the WT peptide: 25 µM peptide in 20% TFE-TRIS buffer pH 7.5, at all wave lengths (208, 211, 215, 222 nm); for reduction (vs. WT peptide) of the CD minimum at 208 nm / reduction (vs. WT peptide) of the CD minimum at 222 nm: 50 µM peptide in 20% TFE-TRIS buffer pH 7.5, 4 °C
Method: Peptides (AR WT 845–868: Acetyl-[…]-amide) with T850D or with phosphorylated T850 (Genscript, Piscataway, NJ, USA) were compared to WT peptide through their CD spectra. […] The Mean Residue-Molar Ellipticity (MR-ME) was calculated as MR-ME = MRW × θ/(10 × d × c) with MRW (Mean Residue Weight) = peptide weight/(n − 1) and n = […]; with θ as the observed ellipticity in millidegrees; […]. The unfolded fraction (Funfolded) of the peptide was calculated from the Ellipticity data using equation: Funfolded = (θt − θfolded)/(θunfolded − θfolded) with θt as the Ellipticity at each temperature, θfolded as the Elllipticity of the peptide in folded state and θunfolded as the Ellipticity of the peptide in unfolded state. Melting temperature (Tm) of AR 845–868 peptides were calculated through nonlinear regression analysis of the Sigmoidal dose response curves (variable slope) using GraphPad Prism 9, version 9.3.1. The temperature corresponding to an unfolded fraction of 0.5 is the Tm. Mean melting temperatures with 95% CI of 2 independent experiments are given. Helix content was calculated from the molar ellipticity [θ] at 222 nm using the following equation, % helix = 100 ([θ]222/(−39,500(1 − 2.57/n))), where n is the number of total peptide bonds and [θ]222 has been corrected for background.

LBD WT = conditions: split TEV assay, Hep3B

| Compound | melting temperature higher than the WT peptide [1] | reduction (vs. WT peptide) of the CD minimum at 208 nm [1] [%] | reduction (vs. WT peptide) of the CD minimum at 222 nm [1] [%] | other results |
| --- | --- | --- | --- | --- |
| C[C@@H]1CC2=CC(=O)CC[C@@H]2[C@H]2CC[C@@]3(C)[C@@H](CC[C@]3(C)O)[C@@H]21 [^3H-Mib] | – | – | – | Bmax (AR T850A): 5514 (±561) cpm; increase of maximal binding, AR T850D vs. AR WT (AR T850D): approximately 50%; Bmax (AR T850D; mean ± SE): 7902 (±773) ** cpm; Bmax (AR WT): 5182 (±602) cpm |
| T850Ph peptide: H10 peptide AR 845–868 (WT: Acetyl-KRKNPTSCSRRFYQLTKLLDSVQP-amide) with phosphorylated T850 (Ac-KRKNP[pT]SCSRRFYQLTKLLDSVQP-NH2; SMILES CC(=O)N[C@@H](CCCCN)C(=O)N[C@@H](CCCNC(=N)N)C(=O)N[C@@H](CCCCN)C(=O)N[C@@H](CC(N)=O)C(=O)N1CCC[C@H]1C(=O)N[C@H](C(=O)N[C@@H](CO)C(=O)N[C@@H](CS)C(=O)N[C@@H](CO)C(=O)N[C@@H](CCCNC(=N)N)C(=O)N[C@@H](CCCNC(=N)N)C(=O)N[C@@H](Cc1ccccc1)C(=O)N[C@@H](Cc1ccc(O)cc1)C(=O)N[C@@H](CCC(N)=O)C(=O)N[C@@H](CC(C)C)C(=O)N[C@H](C(=O)N[C@@H](CCCCN)C(=O)N[C@@H](CC(C)C)C(=O)N[C@@H](CC(C)C)C(=O)N[C@@H](CC(=O)O)C(=O)N[C@@H](CO)C(=O)N[C@H](C(=O)N[C@@H](CCC(N)=O)C(=O)N1CCC[C@H]1C(N)=O)C(C)C)[C@@H](C)O)[C@@H](C)OP(=O)(O)O) | ~27 °C | 38 | 51 | – |
| C[C@]12CCC(=O)C[C@@H]1CC[C@@H]1[C@@H]2CC[C@]2(C)[C@@H](O)CC[C@@H]12 [DHT, dihydrotestosterone] | – | – | – | EC50 of WT LBD compared to EC50 of T850D LBD (LBD WT): 10 fold |
| T850D peptide: H10 peptide AR 845–868 (WT: Acetyl-KRKNPTSCSRRFYQLTKLLDSVQP-amide) with T850D (Ac-KRKNPDSCSRRFYQLTKLLDSVQP-NH2) | approximately 13 °C | 30 | 43 | – |

Reference: PMC8836279, “The T850D Phosphomimetic Mutation in the Androgen Receptor Ligand Binding Domain Enhances Recruitment at Activation Function 2” (International Journal of Molecular Sciences, 2022)
